The values that follow come from publication PMC4220973, “Structural insights into the human RyR2 N-terminal region involved in cardiac arrhythmias” (Acta Crystallographica Section D: Biological Crystallography, 2014).

The data set concerns the molecule itself. The data set is described as follows: SEC; analytical size-exclusion chromatography at 4°C; self-association, monomer to dimer. For orientation: SEC sorts molecules by how far they enter the pores of the column.

As a reminder, the stoichiometry N is the number of molecules, sites or subunits per partner or assembly.

B1: hRyR2^1-606 I419F mutant (domain or fragment, human, UniProt Q92736 1-606, looked up)
chain: MADGGEGEDEIQFLRTDDEVVLQCTATIHKEQQKLCLAAEGFGNRLCFLESTSNSKNVPPDLSICTFVLEQSLSVRALQEMLANTVEKSEGQVDVEKWKFMMKTAQGGGHRTLLYGHAILLRHSYSGMYLCCLSTSRSSTDKLAFDVGLQEDTTGEACWWTIHPASKQRSEGEKVRVGDDLILVSVSSERYLHLSYGNGSLHVDAAFQQTLWSVAPISSGSEAAQGYLIGGDVLRLLHGHMDECLTVPSGEHGEEQRRTVHYEGGAVSVHARSLWRLETLRVAWSGSHIRWGQPFRLRHVTTGKYLSLMEDKNLLLMDKEKADVKSTAFTFRSSKEKLDVGVRKEVDGMGTSEIKYGDSVCYIQHVDTGLWLTYQSVDVKSVRMGSIQRKAIMHHEGHMDDGISLSRSQHEESRTARVFRSTVFLFNRFIRGLDALSKKAKASTVDLPIESVSLSLQDLIGYFHPPDEHLEHEDKQNRLRALKNRQNLFQEEGMINLVLECIDRLHVYSSAAHFADVAGREAGESWKSILNSLYELLAALIRGNRKNCAQFSGSLDWLISRLERLEASSGILEVLHCVLVESPEALNIIKEGHIKSIISLLDKHGR
notes: human ryanodine receptor 2 (hRyR2), N-terminal region, amino acids 1-606, with the cardiac disease-associated mutation I419F in the central helix; Mixture of dimer and monomer by SEC at 4°C (65:35%); Construct details (host, tags) are in Borko et al. (2013); source: recombinant, purified; substitution mutant prepared with the QuikChange protocol
With B1, the “percent dimer (dimer:monomer ratio)” value was determined as 65% and the “stoichiometry N” value turned out to be 2.
